Results published in patent US9526766B2, “Potentiation of antibiotic treatment with a protein-lipid complex” (priority 2012, dated 2016).
Converted amounts (≈) assume the structure as drawn. Where two headings read alike, the source gives them in different places.

B1: ALAFAC: non-covalent complex of alpha-lactalbumin and fatty acid (oleic acid); labeled HAMLET or HL in drawings and tables (protein, UniProt P00709 20-142, looked up)
Alpha-lactalbumin: KQFTKCELSQLLKDIDGYGGIALPELICTMFHTSGYDTQAIVENNESTEYGLFQISNKLWCKSSQVPQSRNICDISCDKFLDDDITDDIMCAKKILDIKGIDYWLAHKALCTEKLEQWLCEKL
modifications: complexed with oleic acid

Columns and labels:
[1] = tested on: S. aureus NRS70 (MRSA) nasopharyngeal colonization; test: Murine nasopharyngeal colonization model, intranasal treatment; type: in vivo, Staphylococcus aureus; conditions: for Colonization burden: mice colonized with NRS70 for 48 hours, methicillin single dose 100 μg (5,000 μg/ml) alone, ALAFAC alone at the same dose
Description: Methodology: Six-week-old female BALB/cByJ mice from Jackson Laboratories (Bar Harbor, Me., U.S.A.) were maintained in filter-top cages on standard laboratory chow and water ad libitum until use. Mice were colonized as described previously. In short, 20 μl of a bacterial suspension containing 5×10^6 CFUs of EF3030 pneumococci, 1×10^8 CFUs of SP670 pneumococci, or 5×10^7 NRS70 methicillin-resistant S. aureus in PBS were pipetted into the nares of non-anesthetized mice. After 48 hours, mice were treated with 20 μl gentamicin (0-5,000 μg/mL), 20 μl penicillin (0-5,000 μg/mL), or 20 μl of methicillin (0-5,000 μg/ml) in the presence or absence of 50 or 100 μg ALAFAC in the nares for 6 hours as a single dose. Colonization burden was then assessed after euthanizing the animals by enumerating viable bacteria from harvested nasopharyngeal tissue after the nasal wash. Nasopharyngeal tissue was dissected out as described by removing the upper skull bone, and harvesting the tissue present in the nasal conchae with forceps. Bacterial load was measured by determining viable plate counts from the homogenized tissue.
Mice were colonized as described. In short, 10 μl of a bacterial suspension containing 5×10^7 CFUs of NRS 70 staphylococci in PBS were pipetted into the nares of non-anesthetized mice. After 24 hours, mice were treated with 20 μl methicillin (0-100 μg or 0-5,000 μg/mL) in the presence or absence of 20 μl (100 μg) ALAFAC in the nares for 12 hours. Colonization burden was then assessed after euthanizing the animals by enumerating viable bacteria both in a nasopharyngeal lavage obtained by injecting 100 μL PBS in the trachea of mice and collecting it as it flowed out the nares, and from harvested nasopharyngeal tissue after the nasal wash. Nasopharyngeal tissue was dissected out as described by removing the upper skull bone, and harvesting the tissue present in the nasal conchae with forceps. Bacterial load was measured by determining viable plate counts from the nasal lavage or from homogenized tissue as described above.

MRSA strain NRS 384 = test: Methicillin resistance development under stepwise methicillin exposure; type: cell-based; conditions: Staphylococcus aureus, read-out: Methicillin MIC after adaptation, NRS 384
From the text: ALAFAC and Methicillin Resistance Development. Experiments were designed to test the impact of ALAFAC on the adaptation of MRSA to methicillin in liquid cultures, and to test ALAFAC's potential to inhibit resistance increase during antibiotic pressure. […]

Bacillus subtilis = conditions: concentrations up to 5 mg/ml; cited from earlier work
Staphylococci [2] = test: Bactericidal activity of ALAFAC alone; type: cell-based
NRS 384 Staphylococci = test: Intracellular pH measurement (BCECF-AM); type: cell-based, Staphylococcus aureus; conditions: ALAFAC 100 μg/mL (6 μM), RuR 30 μM, Amiloride 1 mM
From the text: Intracellular pH measurement. A reported protocol for intracellular pH (pHi) measurement was modified and optimized for S. aureus by testing the effect of various dye concentrations and staining times on the measured fluorescence of S. aureus isolate NRS 384 grown to mid-log phase. Cell samples were subjected to increasing concentrations of the membrane-permeant acetoxymehtyl (AM) ester derivative of the dual-excitation ratiometric pH indicator dye BCECF (2′,7′-bis-(2-carboxyethyl)-5-(and-6)-carboxyfluorescein), for 30 minutes at 30° C. Fluorescence was measured as a ratio of fluorescence at 530 nm with dual wavelength excitation at 490 and 440 nm and calibration curves were established for each independent experiment. After testing a number of loading concentrations we observed that the fluorescence ratios remains generally constant when concentrations above 20 μM was used. Therefore 25 μM BCECF-AM was used for all experiments. The optimized staining time, 30 minutes, was determined using the same criteria and was used for all experiments. After loading, the cells were washed twice in PBS by centrifugation and the resulting pellet was resuspended in PBS to the original volume and ALAFAC and ALAFAC/antibiotic combinations were added. CCCP was added as a positive control. CCCP is a lipophilic weak acid that is soluble in the lipid domain of the membrane in both the protonated and deprotonated form. This allows it to act as a protonophore causing an influx of H^+ into the cytoplasm, dissipating both the electrical potential and the H^+ gradient across the inner membrane. For each experiment calibration was performed where cells were resuspended in high [K^+] buffers at different pH values ranging from 6.5 to 8.0.

Pseudomonas aeruginosa = conditions: concentrations up to 5 mg/ml; cited from earlier work
[3] = in vivo; cited from earlier work
healthy human cells = conditions: cited from earlier work
Moraxella catarrhalis = conditions: 2 mg/ml; cited from earlier work
Staphylococci [4] = test: Membrane integrity assays (propidium iodide, ATP, A260 leakage); type: cell-based, Staphylococcus aureus; conditions: S. aureus; data not shown
Description: Membrane Integrity Assays. To evaluate the effect of […] on membrane integrity, Staphylococci were exposed to […] and antibacterial agents at indicated concentrations for 50 minutes at 37° C. in PBS. The detergent Triton X-100 (0.1%) was used as a control, known to cause extensive membrane rupture. After treatment the leakage of soluble components (DNA RNA and protein) were measured from supernatant obtained after centrifugation of the bacterial suspension at 13,000×g for 5 min, by measuring the absorbance at 260 nm in a BioTek Synergy 2 plate reader with the Take3 microdrop addition (Biotek). Cellular release of the small molecule ATP (MW 507) that was measured from the same supernatants using the ATP determining kit (Invitrogen), which measures the luminescence of oxyluciferin produced from the oxidation of luciferin by luficerase, a process that requires ATP degradation. […] Where applicable, independent readings were also taken in the presence of antibacterial agents alone to enable corrections for potential background leakage.

| Molecule | Minimum antibiotic concentration for bactericidal (>3 log10) activity on murine nasopharyngeal colonization ([1]; NRS70, mice, within 12 hours, antibiotic alone) | MRSA colonization, nasopharyngeal tissue ([1]; mice colonized with NRS 70 for 24 h, one dose, 100 μg methicillin alone or with 100 μg ALAFAC, 12 hours) | Colonization burden [1] | MIC (MRSA strain NRS 384; 8 cycles with increasing methicillin, no ALAFAC) | MIC (MRSA strain NRS 384; 10 cycles in methicillin plus ALAFAC 100 μg/mL (6 μM), MIC tested without ALAFAC) | Bactericidal activity (Bacillus subtilis) | Concentration of ALAFAC not triggering death (Staphylococci [2]) | Storage time (physiological buffer (0.9% saline or PBS) at 4° C.) | Storage time (room temperature) | Transmembrane proton gradient (intracellular pH) (NRS 384 Staphylococci) | Bactericidal activity (Pseudomonas aeruginosa) | Toxic side effects [3] | Toxicity (healthy human cells) | Reduction of bacteria (Moraxella catarrhalis) | Membrane damage (propidium iodide staining; leakage of ATP, DNA, RNA) (Staphylococci [4]) |
| --- | --- | --- | --- | --- | --- | --- | --- | --- | --- | --- | --- | --- | --- | --- | --- |
| COc1cccc(OC)c1C(=O)N[C@@H]1C(=O)N2[C@@H]1SC(C)(C)[C@@H]2C(=O)O [Methicillin, methicillin] | >100 μg/dose | failed to significantly reduce | no effect | 512 µg/mL (≈ 1350 µM) | 64 µg/mL |  |  |  |  |  |  |  |  |  |  |
| B1 |  |  | no effect |  |  | no detectable activity | exceeding 1,000 μg/ml | at least 3 months | at least three | effectively dissipated the proton gradient | no detectable activity | without showing any toxic side effects | no toxicity | less than 90% | no membrane damage |
